According to patent publication US20250197514A1 (INTERVET, published 2025):
Positions count from the first letter of the chain named. Names may count otherwise.

T1: canine FcRn heterodimer (FCGRT large subunit p51 + beta-2-microglobulin), biotin-labeled (Canis lupus familiaris; Canis familiaris, biotin-labeled (site not stated; the chain carries an AviTag))
T1 construct: also called FcRn/B2M; FcRn/β2M; not shown: AviTag, named only
T1 chain (part 1 of 2): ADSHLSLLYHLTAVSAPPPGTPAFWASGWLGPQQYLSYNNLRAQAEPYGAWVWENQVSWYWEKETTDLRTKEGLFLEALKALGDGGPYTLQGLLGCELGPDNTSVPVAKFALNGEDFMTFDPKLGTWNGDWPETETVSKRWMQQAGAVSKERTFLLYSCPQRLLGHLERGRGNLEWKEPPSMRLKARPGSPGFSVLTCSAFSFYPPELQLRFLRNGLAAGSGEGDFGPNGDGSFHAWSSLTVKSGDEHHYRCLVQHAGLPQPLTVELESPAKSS
T1 chain (part 2 of 2): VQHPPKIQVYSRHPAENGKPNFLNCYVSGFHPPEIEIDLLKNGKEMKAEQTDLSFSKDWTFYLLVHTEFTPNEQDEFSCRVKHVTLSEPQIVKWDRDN

B1: cIL-13Rα2-cIgGB-Fc-KFT (Fc fusion)
chain: SMLSNAEIKVNPPQDFEIVDPGYLGYLSLQWQPPLFPDNFKECTIEYELKYRNIDSENWKTIITKNLHYKDGFDLNKGIEAKINTLLPAQCTNGSEVRSSWAETTYWTSPQGNRETKIQDMDCVYYNWQYLVCSWKPGMGVHFDTNYQLFYWYEGLDHSAECTDYIKVNGKNMGCRFPYLESSDYKDFYICVNGSSESQPIRPSYFIFQLQNIVKPMPPDYLSLTVKNSEEINLKWNMPKGPIPAKCFIYEIEFTEDGTTWVTTTVENEIQITRTSNESQKLCFLVRSKVNIYCSDDGIWSEWSDEQCWKGDIWKETPKRENGRVPRPPDCPKCPAPEMLGGPSVFIFPPKPKDTLLIARTPEVTCVVVDLDPEDPEVQISWFVDGKQMQTAKTQPREEQFNGTYRVVSVLPIGHQDWLKGKQFTCKVNNKALPSPIERTISKARGQAHQPSVYVLPPSREELSKNTVSLTCLIKDFFPPDIDVEWQSNGQQEPESKYRTTPPQLDEDGSYFLYSKLSVDKSRWQRGDTFICAVMHEALKFHTTQESLSHSPGK
notes: also called cIL-13Ra2-cIgGB-Fc-KFT; H433K/N434F/Y436T
B2: cIL-13Rα2-cIgGB-Fc-KY (Fc fusion)
chain: B1 chain with F541Y, T543Y
notes: also called cIL-13Ra2-cIgGB-Fc-KY; H433K/N434Y
B3: cIL-13Rα2-cIgGB-Fc-YT (Fc fusion)
chain: B1 chain with K540H, F541Y
notes: also called cIL-13Ra2-cIgGB-Fc-YT; N434Y/Y436T
B4: cIL-13Rα2-cIgGB-Fc-LYT (Fc fusion)
chain: B1 chain with K540L, F541Y
notes: also called cIL-13Ra2-cIgGB-Fc-LYT; H433L/N434Y/Y436T
B5: cIL-13Rα2-cIgGB-Fc-T (Fc fusion)
chain: B1 chain with K540H, F541N
notes: also called cIL-13Ra2-cIgGB-Fc-T; Y436T
B6: cIL-13Rα2-cIgGB-Fc-LFT (Fc fusion)
chain: B1 chain with K540L
notes: also called cIL-13Ra2-cIgGB-Fc-LFT; H433L/N434F/Y436T
B7: cIL-13Rα2-cIgGB-Fc-LF (Fc fusion)
chain: B1 chain with K540L, T543Y
notes: also called cIL-13Ra2-cIgGB-Fc-LF; H433L/N434F
B8: cIL-13Rα2-cIgGB-Fc-LY (Fc fusion)
chain: B1 chain with K540L, F541Y, T543Y
notes: also called cIL-13Ra2-cIgGB-Fc-LY; H433L/N434Y
B9: cIL-13Rα2-cIgGB-Fc-Y (Fc fusion)
chain: B1 chain with K540H, F541Y, T543Y
notes: Made in ExpiCHO, Protein A purified; also called cIL-13Ra2-cIgGB-Fc-Y; N434Y
B10: cIL-13Rα2-cIgGB-Fc-PY (Fc fusion)
chain: B1 chain with I413P, K540H, F541Y, T543Y
notes: also called cIL-13Ra2-cIgGB-Fc-PY; I308P/N434Y
B11: c218D9-H4L3-cIgGBm-YD (antibody)
heavy: EVTLQESGPGLVKPSQTLSLTCSFSGFSLSTFGRGVGWIRQRPGRGLEWMGHIWWDDDKYYNPALKSRLSITKDTAKNQVFLQLSSMTTEDTAVYYCARIAGGLRRAPYAMDSWGQGTLVTVSSASTTAPSVFPLAPSCGSTSGSTVALACLVSGYFPEPVTVSWNSGSLTSGVHTFPSVLQSSGLYSLSSMVTVPSSRWPSETFTCNVAHPASKTKVDKPVPKRENGRVPRPPDCPKCPAPEMLGGPSVFIFPPKPKDTLYIARDPEVTCVVVALDPEDPEVQISWFVDGKQMQTAKTQPREEQFAGTYRVVSVLPIGHQDWLKGKQFTCKVNNKALPSPIERTISKARGQAHQPSVYVLPPSREELSKNTVSLTCLIKDFFPPDIDVEWQSNGQQEPESKYRTTPPQLDEDGSYFLYSKLSVDKSRWQRGDTFICAVMHEALHNHYTQESLSHSPGK
light: DIVMTQTPLSLSVSPGETASISCRASENIYSSLAWFRQKPGQSPQLLVYAATNLADGVPDRFSGSGSGTDYTLRISRVEADDTGVYYCQHFRDTPPTFGQGTKLEIKRNDAQPAVYLFQPSPDQLHTGSASVVCLLNSFYPKDINVKWKVDGVIQDTGIQESVTEQDKDSTYSLSSTLTMSSTEYLSHELYSCEITHKSLPSTLIKSFQRSECQRVD
notes: also called c218D9VH4-cIgGBm-YD; L252Y/T256D

Target: T1, canine FcRn heterodimer (FCGRT large …)
Test: BLI (Octet HTX), biotinylated FcRn/B2M on streptavidin biosensors, analyte 500-7.8 nM, pH 6.0, 1:1 fit; pH 6.0
Description: (§1) The binding of antibodies and IgG Fc fusion proteins to FcRn proteins was determined by Octet™ HTX using Streptavidin (SA) biosensors. First, biotin-labeled […] was loaded onto pre-hydrated SA biosensors for 60 s at a concentration of 10 μg/mL. Second, the biosensors were placed into pH 6.0 TBS/Casein buffer for the blocking phase for 180 s. Third, for the association phase, FcRn/B2M loaded biosensors were placed into 2-fold serial dilutions from 500 nM down to 7.8 nM of antibody or IgG Fc fusion protein in pH 6.0 or 7.4 TBS/Casein buffer for 15 s. Finally, the biosensors were placed into either pH 6.0 or pH 7.4 TBS/Casein buffer for the dissociation phase for 60 s. Analysis was performed using Octet Data Analysis 12.0 software and curves were fitted using a 1:1 binding model.

Row | Kd [nM] | Binder
1 | 931 | B1
2 | 0.00046 | B2

Target: T1, canine FcRn heterodimer (FCGRT large …)
Test: BLI (Octet HTX), biotinylated FcRn/B2M on streptavidin biosensors, analyte 500-7.8 nM, pH 6.0, 1:1 fit
Description: as §1

Row | Kd [nM] | Binder
3 | 1.39 | B3
4 | 3.32 | B4
5 | 5.95 | B5
6 | 2.87 | B6
7 | 2.27 | B7
8 | 2.35 | B8
9 | 0.11 | B9
10 | 0.3 | B10

Target: T1, canine FcRn heterodimer (FCGRT large …)
Test: BLI (Octet HTX), biotinylated FcRn/B2M on streptavidin biosensors, analyte 500-7.8 nM, pH 7.4, 1:1 fit; pH 7.4
Description: as §1

Row | Kd [nM] | Binder
11 | 105 | B11

Target: T1, canine FcRn heterodimer (FCGRT large …)
Test: BLI (Octet HTX), biotinylated FcRn/B2M on streptavidin biosensors, analyte 500-7.8 nM, pH 7.4, 1:1 fit
Description: as §1

Row | Kd [nM] | Binder
12 | 136 | B1
13 | 296 | B2
14 | 233 | B3
15 | 127 | B4
16 | 6120 | B5
17 | 905 | B6
18 | 226 | B7
19 | 298 | B8
20 | 187 | B9
21 | 20.4 | B10
